Experimental data published in the Immune Epitope Database (IEDB).
One block for each sequence: values may come before it.

Assays:
[1] = target: HLA-B*57:01; experiment: IEDB peptide-MHC binding, purified MHC/competitive/radioactivity; filed as Kd, often an IC50 or EC50 that approximates it; ≥ and ≤ were set here for values at or beyond the usual limits of such assays
[2] = target: HLA-B*58:01; experiment: as above
[3] = target: HLA-A*01:01; experiment: IEDB peptide-MHC binding, purified MHC/direct/fluorescence; filed as Kd, often an IC50 or EC50 that approximates it; ≥ and ≤ were set here for values at or beyond the usual limits of such assays
[4] = target: HLA-A*02:01; experiment: as above
[5] = target: HLA-A*03:01; experiment: as above
[6] = target: HLA-B*07:02; experiment: as above
[7] = target: HLA-B*15:01; experiment: as above; settings: source organism: Bacillus anthracis
[8] = target: HLA-B*15:17; experiment: as above
[9] = target: HLA-B*27:05; experiment: as above
[10] = target: HLA-B*57:01; experiment: as above
[11] = target: HLA-B*58:01; experiment: as above
[12] = target: HLA-A*11:01; experiment: as above; settings: source organism: Escherichia coli O157:H7
[13] = target: HLA-A*31:01; experiment: as above; settings: source organism: Escherichia coli O157:H7
[14] = target: HLA-A*68:02; experiment: as above; settings: source organism: Escherichia coli O157:H7
[15] = target: HLA-A*69:01; experiment: as above; settings: source organism: Escherichia coli O157:H7
[16] = target: HLA-B*18:01; experiment: as above; settings: source organism: Escherichia coli O157:H7
[17] = target: HLA-B*40:01; experiment: as above; settings: source organism: Escherichia coli O157:H7
[18] = target: HLA-B*48:01; experiment: as above; settings: source organism: Escherichia coli O157:H7
[19] = target: HLA-A*02:01; experiment: IEDB peptide-MHC binding, purified MHC/competitive/fluorescence; ≥ and ≤ were set here for values at or beyond the usual limits of such assays
[20] = target: HLA-A*24:02; experiment: as above
[21] = target: HLA-B*08:01; experiment: as above
[22] = target: HLA-B*07:02; experiment: as above
[23] = target: HLA-B*15:01; experiment: as above; settings: source organism: Zaire ebolavirus
[24] = target: HLA-B*07:02; experiment: IEDB peptide-MHC binding, purified MHC/competitive/fluorescence; filed as Kd, often an IC50 or EC50 that approximates it; ≥ and ≤ were set here for values at or beyond the usual limits of such assays
[25] = target: HLA-B*35:01; experiment: as above; settings: source organism: Bacillus anthracis str. A2012
[26] = target: HLA-B*51:01; experiment: as above; settings: source organism: Bacillus anthracis str. A2012
[27] = target: HLA-A*29:02; experiment: IEDB peptide-MHC binding, purified MHC/direct/fluorescence; filed as Kd, often an IC50 or EC50 that approximates it; ≥ and ≤ were set here for values at or beyond the usual limits of such assays; settings: source organism: Escherichia coli O157:H7
[28] = target: HLA-B*44:02; experiment: as above; settings: source organism: Escherichia coli O157:H7
[29] = target: HLA-B*46:01; experiment: as above; settings: source organism: Escherichia coli O157:H7
[30] = target: HLA-A*32:01; experiment: IEDB peptide-MHC binding, purified MHC/competitive/radioactivity; filed as Kd, often an IC50 or EC50 that approximates it; ≥ and ≤ were set here for values at or beyond the usual limits of such assays; settings: source organism: Dengue virus 3 Martinique/1243/1999
[31] = target: HLA-A*29:02; experiment: IEDB peptide-MHC binding, purified MHC/competitive/fluorescence; filed as Kd, often an IC50 or EC50 that approximates it; ≥ and ≤ were set here for values at or beyond the usual limits of such assays
[32] = target: HLA-A*02:01; experiment: as above
[33] = target: HLA-A*02:12; experiment: as above; settings: source organism: Francisella tularensis subsp. holarctica OSU18
[34] = target: HLA-A*02:03; experiment: as above; settings: source organism: Human immunodeficiency virus 1
[35] = target: HLA-B*15:17; experiment: as above; settings: source organism: Human immunodeficiency virus 1
[36] = target: HLA-B*15:01; experiment: as above
[37] = target: HLA-B*40:01; experiment: as above
[38] = target: HLA-A*02:19; experiment: as above
[39] = target: HLA-A*69:01; experiment: as above; settings: source organism: Human immunodeficiency virus 1
[40] = target: HLA-B*35:01; experiment: IEDB peptide-MHC binding, purified MHC/competitive/radioactivity; filed as Kd, often an IC50 or EC50 that approximates it; ≥ and ≤ were set here for values at or beyond the usual limits of such assays
[41] = target: HLA-A*24:02; experiment: as above; settings: source organism: Dengue virus 2 Jamaica/1409/1983
[42] = target: HLA-B*53:01; experiment: as above
[43] = source organism: Dengue virus 1 Brazil/97-11/1997
[44] = source organism: Bacillus anthracis
[45] = source organism: Escherichia coli O157:H7
[46] = source organism: Zaire ebolavirus
[47] = source organism: Bacillus anthracis str. A2012
[48] = source organism: Sudan ebolavirus
[49] = source organism: Dengue virus 3 Martinique/1243/1999
[50] = source organism: Human immunodeficiency virus 1
[51] = source organism: Yersinia pestis CO92
[52] = source organism: Entamoeba histolytica HM-1:IMSS
[53] = source organism: Vaccinia virus WR
[54] = source organism: Dengue virus 4 Philippines/H241/1956
[55] = source organism: Dengue virus 2 Jamaica/1409/1983
[56] = source organism: Escherichia coli O157:H7 str. EDL933

Sequence: MSSEGAWKQI
Kd [1, 43]: 0.231 µM | Kd [2, 43]: 0.786 µM

Sequence: RTIQGQRFW
Kd [3, 44]: ≥ 20 µM | Kd [4, 44]: ≥ 20 µM | Kd [5, 44]: ≥ 20 µM | Kd [6, 44]: ≥ 20 µM | Kd [7]: ≥ 20 µM | Kd [8, 44]: ≥ 20 µM | Kd [9, 44]: ≥ 20 µM | Kd [10, 44]: ≥ 20 µM | Kd [11, 44]: ≥ 20 µM

Kd [3, 45]: ≥ 20 µM | Kd [4, 45]: ≥ 20 µM | Kd [12]: ≥ 20 µM | Kd [13]: ≥ 20 µM | Kd [14]: ≥ 20 µM | Kd [15]: ≥ 20 µM | Kd [6, 45]: ≥ 20 µM | Kd [8, 45]: ≥ 20 µM | Kd [16]: 0.193 µM | Kd [9, 45]: ≥ 20 µM | Kd [17]: ≥ 20 µM | Kd [18]: ≥ 20 µM | Kd [10, 45]: ≥ 20 µM | Kd [11, 45]: ≥ 20 µM
Sequence: HEVHAVWPG

Sequence: SLFLPKLVV
IC50 [19, 46]: 0.2 µM | IC50 [20, 46]: 45.4 µM | IC50 [21, 46]: ≥ 293 µM

Sequence: SVGHMMVIF
IC50 [19, 46]: 18.6 µM | IC50 [20, 46]: 2.41 µM | IC50 [22, 46]: ≥ 277 µM | IC50 [23]: 10.5 µM

Sequence: MPLKKQILF
Kd [24, 47]: 0.279 µM | Kd [25]: ≤ 0.0001 µM | Kd [26]: 0.13 µM

Sequence: RLDRPHTPQ
IC50 [19, 48]: ≥ 88.5 µM | IC50 [22, 48]: 28.5 µM

Kd [3, 45]: ≥ 20 µM | Kd [5, 45]: ≥ 20 µM | Kd [12]: ≥ 20 µM | Kd [27]: ≥ 20 µM | Kd [15]: ≥ 20 µM | Kd [16]: ≥ 20 µM | Kd [9, 45]: ≥ 20 µM | Kd [17]: ≥ 20 µM | Kd [28]: ≥ 20 µM | Kd [29]: ≥ 20 µM | Kd [18]: ≥ 20 µM | Kd [10, 45]: ≥ 20 µM | Kd [11, 45]: ≥ 20 µM
Sequence: MLKLRQARL

Sequence: ASSGMLWMAE
Kd [1, 49]: ≥ 29.3 µM | Kd [2, 49]: 2.27 µM

Sequence: RVWIEDNPW
Kd [30]: 0.0719 µM | Kd [1, 49]: 0.0496 µM | Kd [2, 49]: 0.00211 µM

Sequence: TVEGIGHHY
Kd ([31]; source organism: Shigella sonnei Ss046): 0.036 µM

Sequence: SVYSWAIML
Kd ([32]; source organism: Francisella tularensis subsp. holarctica OSU18): 0.0175 µM | Kd [33]: 2.31 µM

Sequence: LYNTVATLY
Kd [32, 50]: 1.16 µM | Kd [34]: 0.571 µM | Kd [35]: ≥ 20 µM

Sequence: GELIFSHNL
Kd [36, 51]: 3.15 µM | Kd [37, 51]: 0.007 µM

Sequence: YETLVGLAI
Kd ([37]; source organism: Salmonella enterica subsp. enterica serovar Typhi): 0.004 µM

Sequence: LTFGWCFKL
Kd [32, 50]: 0.151 µM | Kd [38, 50]: 0.755 µM | Kd [39]: 0.0465 µM

Sequence: SMFYGIFPS
Kd [32, 52]: 0.0002 µM | Kd [38, 52]: 0.285 µM

Sequence: LPWTKISET
IC50 [19, 53]: ≥ 405 µM | IC50 [20, 53]: 66.7 µM | IC50 [22, 53]: ≥ 81.6 µM | IC50 [21, 53]: ≥ 86.8 µM

Sequence: WMSSEGAWKQ
Kd [2, 43]: 7.76 µM

Sequence: IAVSTANIF
Kd [40, 54]: 0.151 µM | Kd [1, 54]: 0.407 µM

Sequence: LWNPYEWYQ
Kd [31, 47]: 0.52 µM

Sequence: KTRTNDWDF
Kd ([1]; source organism: Dengue virus 2 Peru/IQT2913/1996): 0.00654 µM

Sequence: VPKLLLWFN
IC50 ([20]; source organism: Variola virus): 9.71 µM | IC50 ([22]; source organism: Variola virus): ≥ 810 µM

Sequence: KTSIGLICVI
Kd [1, 49]: 0.213 µM

Sequence: LPFERATV
Kd ([24]; source organism: Influenza A virus (A/swine/Italy/2/1979(H1N1))): 0.0105 µM

Sequence: IAASIILEF
Kd [41]: 0.475 µM | Kd [40, 55]: 0.022 µM | Kd [42, 55]: 0.0261 µM | Kd [2, 55]: 0.00703 µM

Sequence: MNHKNKFMA
IC50 [19, 46]: ≥ 143 µM | IC50 [21, 46]: 19.9 µM

Sequence: YRHILRSQG
IC50 [21, 46]: ≥ 171 µM

Sequence: FEVKKRDGV
IC50 [21, 46]: ≥ 158 µM

Kd [36, 56]: 0.265 µM | Kd [37, 56]: 3.21 µM
Sequence: FERGVINVF

Sequence: AAVEDEDFW
Kd [42, 49]: 0.334 µM | Kd [1, 49]: 1.11 µM | Kd [2, 49]: 0.112 µM
